Test results from patent US20160138027A1 (Stanford University, published 2016).

Key:
p62 = target: T1, p62 (human, UniProt Q13501 2-440); experiment: FLAG co-immunoprecipitation from cross-linked HEK293T lysates, western blot (FIG. 6C)
T1 construct: Endogenous protein probed with anti-p62 from BD Transduction Laboratories
Method: (§1) HEK293T cells were transfected with either MORTOR-3×FLAG or FLAG alone for 22 or 42 hours later. Cells were then starved of amino acids and serum for 4 hours and re-stimulated with amino acids for 5 minutes or left untreated. Cells were cross-linked and harvested and FLAG immunoprecipitation was used to test for interactions with endogenous proteins. […] HEK293T cells were transfected with either MORTOR-3×FLAG, MORTOR-1×FLAG (CMV), or FLAG only and treated as in FIG. 6A.
(§2) One day before transfection, 2,000,000 HEK293T cells were plated in 10 cm culture dishes. The cells were transfected with 2 μg of cDNA expression vectors using Lipofectamine 2000 (Life Technologies). Four hours after transfection, the cells were washed and incubated in DMEM with 10% FBS without antibiotics for 18 hours. When amino acid sensitivity was investigated, cells were transfected for 18 or 38 hours followed by 4 hours of amino acid starvation. The cells were then stimulated with amino acid for 7 minutes. The cells were incubated in Triton X-100 lysis buffer (1% Triton X-100, 40 mM HEPES pH 7.4, 2 mM EDTA, 200 mM NaCl, phosSTOP and protease inhibitor cocktail (Roche)) for 1 hour, followed by sonication at 4° C. For in-cell crosslinking experiments, DSP was used as previously described (Sancak, Y., et al. (2008) “The Rag GTPases Bind Raptor and Mediate Amino Acid Signaling to MTORC1,” Science, 320:1496-1501) prior to cell lysis. The lysates were centrifuged at 20,000×g for 30 minutes. For immunoprecipitation, primary antibodies were cross-linked to Protein G beads (Life technologies) using DMP (Thermo scientific). For anti-FLAG-immunoprecipitation, the FLAG-M2 affinity gel (Life technologies) was used. The cleared lysates were incubated with the beads at 4° C. for 2 hours or overnight. The beads were washed five times with ice-cold lysis buffer. Immunoprecipitated proteins were denatured in the SDS sample buffer and separated by SDS-PAGE. The intensity of bands were quantified using ImageJ (NIH).

Rictor = target: T2, Rictor (human, UniProt Q6R327 1-1708); experiment: as above
T2 construct: Endogenous protein probed in the co-immunoprecipitate
T2 sequence (Q6R327 whole entry): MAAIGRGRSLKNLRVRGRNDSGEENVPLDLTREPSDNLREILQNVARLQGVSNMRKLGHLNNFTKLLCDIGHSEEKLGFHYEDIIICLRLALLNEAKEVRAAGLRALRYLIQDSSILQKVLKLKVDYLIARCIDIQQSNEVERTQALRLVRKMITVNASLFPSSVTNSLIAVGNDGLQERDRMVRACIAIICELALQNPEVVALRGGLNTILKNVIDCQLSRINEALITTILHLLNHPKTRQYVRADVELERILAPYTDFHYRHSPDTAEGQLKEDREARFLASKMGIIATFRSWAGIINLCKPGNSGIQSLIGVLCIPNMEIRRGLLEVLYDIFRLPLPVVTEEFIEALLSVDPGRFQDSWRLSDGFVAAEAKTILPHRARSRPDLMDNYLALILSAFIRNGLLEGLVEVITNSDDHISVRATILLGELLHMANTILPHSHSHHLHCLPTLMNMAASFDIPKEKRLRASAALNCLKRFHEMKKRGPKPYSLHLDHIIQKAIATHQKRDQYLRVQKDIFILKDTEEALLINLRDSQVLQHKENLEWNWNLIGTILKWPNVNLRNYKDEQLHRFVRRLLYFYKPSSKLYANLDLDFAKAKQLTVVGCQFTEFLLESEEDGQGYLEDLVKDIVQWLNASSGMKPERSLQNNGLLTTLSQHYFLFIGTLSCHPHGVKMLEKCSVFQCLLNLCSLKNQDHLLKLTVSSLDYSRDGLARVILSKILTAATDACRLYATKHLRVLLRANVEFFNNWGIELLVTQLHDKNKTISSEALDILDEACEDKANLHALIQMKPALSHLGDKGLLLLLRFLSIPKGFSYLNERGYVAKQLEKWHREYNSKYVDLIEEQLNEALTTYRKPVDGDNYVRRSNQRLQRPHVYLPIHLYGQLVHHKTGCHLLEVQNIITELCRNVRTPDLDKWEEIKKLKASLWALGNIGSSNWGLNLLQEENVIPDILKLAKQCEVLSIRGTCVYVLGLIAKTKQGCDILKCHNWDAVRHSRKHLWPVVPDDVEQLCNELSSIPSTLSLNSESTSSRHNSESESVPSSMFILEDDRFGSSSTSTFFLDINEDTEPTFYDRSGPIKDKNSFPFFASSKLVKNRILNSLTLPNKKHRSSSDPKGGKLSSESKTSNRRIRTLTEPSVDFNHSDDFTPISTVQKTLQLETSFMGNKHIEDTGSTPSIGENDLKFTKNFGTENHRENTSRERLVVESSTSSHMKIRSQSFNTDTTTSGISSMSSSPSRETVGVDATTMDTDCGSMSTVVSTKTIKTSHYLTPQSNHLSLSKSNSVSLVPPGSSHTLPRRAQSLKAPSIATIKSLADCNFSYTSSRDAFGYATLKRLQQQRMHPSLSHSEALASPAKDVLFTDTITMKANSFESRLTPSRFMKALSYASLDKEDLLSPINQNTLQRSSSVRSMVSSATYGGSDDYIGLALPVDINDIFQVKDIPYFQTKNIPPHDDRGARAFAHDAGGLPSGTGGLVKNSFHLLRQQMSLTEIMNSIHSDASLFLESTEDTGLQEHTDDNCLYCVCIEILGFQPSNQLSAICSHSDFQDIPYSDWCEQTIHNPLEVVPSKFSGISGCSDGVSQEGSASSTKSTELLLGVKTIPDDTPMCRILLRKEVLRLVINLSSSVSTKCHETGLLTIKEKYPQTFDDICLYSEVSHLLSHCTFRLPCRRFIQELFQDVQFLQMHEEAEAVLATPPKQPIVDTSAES
Method: as §1, §2

ATP6V1A = target: T3, ATP6V1A (human, UniProt P38606 1-617); experiment: as above
T3 construct: Endogenous protein probed in the co-immunoprecipitate
T3 sequence (P38606 whole entry): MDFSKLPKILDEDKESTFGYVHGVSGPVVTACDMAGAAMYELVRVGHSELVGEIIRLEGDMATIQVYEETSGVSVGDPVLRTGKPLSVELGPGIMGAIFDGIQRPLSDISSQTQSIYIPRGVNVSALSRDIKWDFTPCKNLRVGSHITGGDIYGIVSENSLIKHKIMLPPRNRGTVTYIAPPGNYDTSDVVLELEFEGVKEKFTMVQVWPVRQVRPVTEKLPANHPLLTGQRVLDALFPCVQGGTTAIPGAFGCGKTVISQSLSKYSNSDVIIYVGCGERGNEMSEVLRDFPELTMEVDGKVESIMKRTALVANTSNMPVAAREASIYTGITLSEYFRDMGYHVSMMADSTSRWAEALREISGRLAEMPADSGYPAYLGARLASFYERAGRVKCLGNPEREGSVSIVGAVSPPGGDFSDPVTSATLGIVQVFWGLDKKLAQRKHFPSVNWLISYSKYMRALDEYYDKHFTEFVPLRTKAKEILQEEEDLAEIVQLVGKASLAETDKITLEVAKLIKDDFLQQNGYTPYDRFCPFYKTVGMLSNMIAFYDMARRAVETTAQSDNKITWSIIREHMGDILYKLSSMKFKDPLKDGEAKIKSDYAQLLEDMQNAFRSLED
Method: as §1, §2

LRS = target: T4, LRS (human, UniProt Q9P2J5 1-1176); experiment: FLAG co-immunoprecipitation from HEK293T lysates, western blot
T4 construct: Endogenous protein probed in the co-immunoprecipitate; also called Leucyl tRNA synthetase
T4 sequence (Q9P2J5 whole entry): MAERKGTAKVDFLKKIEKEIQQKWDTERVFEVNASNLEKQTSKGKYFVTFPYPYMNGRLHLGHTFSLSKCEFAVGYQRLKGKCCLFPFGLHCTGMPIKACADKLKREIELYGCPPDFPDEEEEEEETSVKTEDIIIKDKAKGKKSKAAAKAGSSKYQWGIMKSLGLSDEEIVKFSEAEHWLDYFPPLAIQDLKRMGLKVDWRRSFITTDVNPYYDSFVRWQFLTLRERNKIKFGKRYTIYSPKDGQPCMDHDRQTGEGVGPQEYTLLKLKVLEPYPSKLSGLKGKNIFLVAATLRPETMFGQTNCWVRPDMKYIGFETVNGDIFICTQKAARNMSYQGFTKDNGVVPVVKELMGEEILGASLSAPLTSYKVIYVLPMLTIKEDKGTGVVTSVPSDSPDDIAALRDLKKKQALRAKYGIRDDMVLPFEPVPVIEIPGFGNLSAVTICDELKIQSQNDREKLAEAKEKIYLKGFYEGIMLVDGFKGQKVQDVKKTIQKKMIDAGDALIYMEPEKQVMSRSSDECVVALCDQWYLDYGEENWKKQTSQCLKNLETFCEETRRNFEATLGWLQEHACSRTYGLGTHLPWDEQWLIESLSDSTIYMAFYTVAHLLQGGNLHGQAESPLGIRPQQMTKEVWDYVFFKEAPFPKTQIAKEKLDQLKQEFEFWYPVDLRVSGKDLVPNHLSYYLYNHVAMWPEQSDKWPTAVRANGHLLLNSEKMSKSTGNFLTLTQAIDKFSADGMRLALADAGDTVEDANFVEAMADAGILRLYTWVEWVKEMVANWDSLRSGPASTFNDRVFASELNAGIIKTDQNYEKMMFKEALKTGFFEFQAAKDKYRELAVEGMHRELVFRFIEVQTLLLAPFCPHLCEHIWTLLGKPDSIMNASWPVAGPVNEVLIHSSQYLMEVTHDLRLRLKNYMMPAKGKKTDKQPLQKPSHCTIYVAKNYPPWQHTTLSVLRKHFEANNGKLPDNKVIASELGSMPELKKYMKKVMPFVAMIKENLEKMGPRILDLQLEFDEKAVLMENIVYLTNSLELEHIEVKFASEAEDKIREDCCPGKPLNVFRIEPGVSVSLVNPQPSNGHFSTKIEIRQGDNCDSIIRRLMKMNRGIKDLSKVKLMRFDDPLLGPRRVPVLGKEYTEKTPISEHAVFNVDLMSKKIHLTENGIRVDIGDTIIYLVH

Measured: binding result

B1: MORTOR-3×FLAG (receptor)
chain: MRPERPRPRGSAPGPMETPPWDPARNDSLPPTLTPAVPPYVKLGLTVVYTVFYALLFVFIYVQLWLVLRYRHKRLSYQSVFLFLCLFWASLRTVLFSFYFKDFVAANSLSPFVFWLLYCFPVCLQFFTLTLMNLYFTQVIFKAKSKYSPELLKYRLPLYLASLFISLVFLLVNLTCAVLVKTGNWERKVIVSVRVAINDTLFVLCAVSLSICLYKISKMSLANIYLESKGSSVCQVTAIGVTVILLYTSRACYNLFILSFSQNKSVHSFDYDWYNVSDQADLKNQLGDAGYVLFGVVLFVWELLPTTLVVYFFRVRNPTKDLTNPGMVPSHGFSPRSYFFDNPRRYDSDDDLAWNIAPQGLQGGFAPDYYDWGQQTNSFLAQAGTLQDSTLDPDKPSLG
notes: Expressed from pBMN-GPR137b-3×FLAG in HEK293T or HeLa cells and immunoprecipitated from lysates on FLAG-M2 gel; also called GPR137b-3×FLAG; MORTOR-FLAG; not shown: 3×FLAG tag
no binding: all assays above
